B1: full-length APK3 fusion protein (other)
chain: MATKLESFKVVEKLGVEKGEKGKMMSKKKNVKKDGDESESGFWFRFKFIFSCISSRSKVDSSMNATAVIAEPKKVIEKLEGHPAPTKDTGCAESGSSTPLMSGELKYSSKLRIFMFNDLKLATRNFRPESLLGEGGFGCVFKGWIEENGTAPVKPGTGLTVAVKTLNPDGLQGHKEWLAEINFLGNLVHPSLVKLVGYCMEEDQRLLVYEFMPRGSLENHLFRRTLPLPWSVRMKIALGAAKGLAFLHEEAEKPVIYRDFKTSNILLDGEYNAKLSDFGLAKDAPDEKKSHVSTRVMGTYGYAAPEYVMTGHLTTKSDVYSFGVVLLEILTGRRSVDKSRPNGEQNLVEWVRPHLLDKKRFYRLLDPRLEGHYSIKGAQKATQVAAQCLNRDSKARPKMSEVVEALKPLPNLKDFASSSSSFQTMQPVAKNGVRTQGGGFVSRNGPPMRSLSSLNLPQASPYRYARQSPKPKGKEP
notes: Full-length APK3 tested as a fusion protein in the two-hybrid assay; also called AtAPK3; At3G28690; not shown: two-hybrid fusion partner
B2: APK3(115-476) (other)
chain: MFNDLKLATRNFRPESLLGEGGFGCVFKGWIEENGTAPVKPGTGLTVAVKTLNPDGLQGHKEWLAEINFLGNLVHPSLVKLVGYCMEEDQRLLVYEFMPRGSLENHLFRRTLPLPWSVRMKIALGAAKGLAFLHEEAEKPVIYRDFKTSNILLDGEYNAKLSDFGLAKDAPDEKKSHVSTRVMGTYGYAAPEYVMTGHLTTKSDVYSFGVVLLEILTGRRSVDKSRPNGEQNLVEWVRPHLLDKKRFYRLLDPRLEGHYSIKGAQKATQVAAQCLNRDSKARPKMSEVVEALKPLPNLKDFASSSSSFQTMQPVAKNGVRTQGGGFVSRNGPPMRSLSSLNLPQASPYRYARQSPKPKGKEP
notes: Second truncated APK3 tested as a fusion protein in the two-hybrid assay; also called second truncated APK3 protein; At3G28690; not shown: two-hybrid fusion partner

Molecular target: T1, GAL4BD:CKI2(590-922) (Arabidopsis thaliana)
T1 construct: Yeast two-hybrid bait; Any linker or tag from the vector is not described; also called AT-CKI2(590-922); pRM430
Assay: yeast two-hybrid
Excerpt: Clones representing two independent genes, ARABIDOPSIS HISTIDINE PHOSPHOTRANSFER PROTEIN 3 (AHP3, At5G39340) and At3G28690, a putative serine/threonine protein kinase, were identified from the library screen with GAL4BD:CKI2(590-922). AHPs are the described signaling targets of canonical receptor histidine kinases, such as CRE1, AHK1 and ETR1 (Grefen and Harter, 2004). […] At3G28690 is homologous to the previously published ARABIDOPSIS PROTEIN KINASE 1 (APK1) (Hirayama and Oka, 1992) and APK2 (Ito, et al., 1997) and is designated APK3. […] APK3 has been classified as a Receptor Like Cytoplasmic Kinase (RLCK) VII (Family 1.2.2) in Arabidopsis. […] Its use in modulation of cytokinin-dependent growth responses is being pursued through both transgenic and mutant analysis.
The yeast two-hybrid assays discussed in Example 1 were conducted as follows. Polyadenylated mRNA was isolated from Arabidopsis aerial tissue using a FastTrack™ mRNA kit (Invitrogen, Carlsbad, Calif., USA). First strand cDNA was created using a cDNA synthesis kit (Stratagene, La Jolla, Calif., USA), subsequently cloned into pGADT7 (Clontech, Palo Alto, Calif., USA), and the cDNA library was transformed into the yeast strain AH109 (Clontech).

| Binder | binding result |
| --- | --- |
| B1 | no binding |
| B2 | no binding |

Source: patent US20090235392A1 (PIONEER HI BRED INTERNATIONAL, published 2009)
